Results published in US20230137032A1 (GlaxoSmithKline, published 2023).

B1: CA8 humanised J0M0 (antibody, human IgG1, kappa, V domains shown)
VH: QVQLVQSGAEVKKPGSSVKVSCKASGGTFSNYWMHWVRQAPGQGLEWMGATYRGHSDTYYNQKFKGRVTITADKSTSTAYMELSSLRSEDTAVYYCARGAIYNGYDVLDNWGQGTLVTVSS
VL: DIQMTQSPSSLSASVGDRVTITCSASQDISNYLNWYQQKPGKAPKLLIYYTSNLHSGVPSRFSGSGSGTDFTLTISSLQPEDFATYYCQQYRKLPWTFGQGTKLEIKR
notes: Humanised CA8, heavy chain J0 with light chain M0, human IgG1 kappa; also called CA8 J0M0
B2: CA8 humanised J2M0 (antibody, human IgG1, kappa, V domains shown)
VH: QVQLVQSGAEVKKPGSSVKVSCKASGYTFTNYWMHWVRQAPGQGLEWMGATYRGHSDTYYNQKFKGRVTITADKSTSTAYMELSSLRSEDTAVYYCTRGAIYNGYDVLDNWGQGTLVTVSS
VL: DIQMTQSPSSLSASVGDRVTITCSASQDISNYLNWYQQKPGKAPKLLIYYTSNLHSGVPSRFSGSGSGTDFTLTISSLQPEDFATYYCQQYRKLPWTFGQGTKLEIKR
notes: Humanised CA8, heavy chain J2 with light chain M0, human IgG1 kappa; also called CA8 J2M0
B3: CA8 humanised J1M1 (antibody, human IgG1, kappa, V domains shown)
VH: QVQLVQSGAEVKKPGSSVKVSCKASGYTFTNYWMHWVRQAPGQGLEWMGATYRGHSDTYYNQKFKGRVTITADKSTSTAYMELSSLRSEDTAVYYCARGAIYNGYDVLDNWGQGTLVTVSS
VL: DIQMTQSPSSLSASVGDRVTITCSASQDISNYLNWYQQKPGKAPKLLIYYTSNLHSGVPSRFSGSGSGTDYTLTISSLQPEDFATYYCQQYRKLPWTFGQGTKLEIKR
notes: Humanised CA8, heavy chain J1 with light chain M1, human IgG1 kappa; also called CA8 J1M1
B4: CA8 humanised J0M2 (antibody, human IgG1, kappa, V domains shown)
VH: QVQLVQSGAEVKKPGSSVKVSCKASGGTFSNYWMHWVRQAPGQGLEWMGATYRGHSDTYYNQKFKGRVTITADKSTSTAYMELSSLRSEDTAVYYCARGAIYNGYDVLDNWGQGTLVTVSS
VL: DIQLTQSPSSLSASVGDRVTITCSASQDISNYLNWYQQKPGKAPELVIYYTSNLHSGVPSRFSGSGSGTDYTLTISSLQPEDFATYYCQQYRKLPWTFGQGTKLEIKR
notes: Humanised CA8, heavy chain J0 with light chain M2, human IgG1 kappa; also called CA8 J0M2
B5: CA8 humanised J1M2 (antibody, human IgG1, kappa, V domains shown)
VH: QVQLVQSGAEVKKPGSSVKVSCKASGYTFTNYWMHWVRQAPGQGLEWMGATYRGHSDTYYNQKFKGRVTITADKSTSTAYMELSSLRSEDTAVYYCARGAIYNGYDVLDNWGQGTLVTVSS
VL: DIQLTQSPSSLSASVGDRVTITCSASQDISNYLNWYQQKPGKAPELVIYYTSNLHSGVPSRFSGSGSGTDYTLTISSLQPEDFATYYCQQYRKLPWTFGQGTKLEIKR
notes: Humanised CA8, heavy chain J1 with light chain M2, human IgG1 kappa; also called CA8 J1M2
B6: CA8 humanised J1M0 (antibody, human IgG1, kappa, V domains shown)
VH: QVQLVQSGAEVKKPGSSVKVSCKASGYTFTNYWMHWVRQAPGQGLEWMGATYRGHSDTYYNQKFKGRVTITADKSTSTAYMELSSLRSEDTAVYYCARGAIYNGYDVLDNWGQGTLVTVSS
VL: DIQMTQSPSSLSASVGDRVTITCSASQDISNYLNWYQQKPGKAPKLLIYYTSNLHSGVPSRFSGSGSGTDFTLTISSLQPEDFATYYCQQYRKLPWTFGQGTKLEIKR
notes: Humanised CA8, heavy chain J1 with light chain M0, human IgG1 kappa; also called CA8 J1M0
B7: CA8 humanised J2M1 (antibody, human IgG1, kappa, V domains shown)
VH: QVQLVQSGAEVKKPGSSVKVSCKASGYTFTNYWMHWVRQAPGQGLEWMGATYRGHSDTYYNQKFKGRVTITADKSTSTAYMELSSLRSEDTAVYYCTRGAIYNGYDVLDNWGQGTLVTVSS
VL: DIQMTQSPSSLSASVGDRVTITCSASQDISNYLNWYQQKPGKAPKLLIYYTSNLHSGVPSRFSGSGSGTDYTLTISSLQPEDFATYYCQQYRKLPWTFGQGTKLEIKR
notes: Humanised CA8, heavy chain J2 with light chain M1, human IgG1 kappa; also called CA8 J2M1
B8: CA8 humanised J0M1 (antibody, human IgG1, kappa, V domains shown)
VH: QVQLVQSGAEVKKPGSSVKVSCKASGGTFSNYWMHWVRQAPGQGLEWMGATYRGHSDTYYNQKFKGRVTITADKSTSTAYMELSSLRSEDTAVYYCARGAIYNGYDVLDNWGQGTLVTVSS
VL: DIQMTQSPSSLSASVGDRVTITCSASQDISNYLNWYQQKPGKAPKLLIYYTSNLHSGVPSRFSGSGSGTDYTLTISSLQPEDFATYYCQQYRKLPWTFGQGTKLEIKR
notes: Humanised CA8, heavy chain J0 with light chain M1, human IgG1 kappa; also called CA8 J0M1

What was measured:
[1] = target: T1, recombinant human BCMA, in house material (human, UniProt Q02223 4-53, limits assumed); assay: ProteOn SPR run 1, antibody captured on Protein A, 25C
T1 construct: also called Human in house BCMA; In house human BCMA

[2] = target: T2, recombinant cyno BCMA, in house material (cyno, UniProt A0A2K5UD97 4-52); assay: as above
T2 construct: also called Cyno in house BCMA
T2 sequence (A0A2K5UD97 entry or part of it): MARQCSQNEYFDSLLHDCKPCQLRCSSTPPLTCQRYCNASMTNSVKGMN

T1 sequence (Q02223 4-53 limits assumed): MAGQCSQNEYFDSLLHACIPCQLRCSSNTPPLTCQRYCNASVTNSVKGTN

Row | Binder | Kd [1] | Kd [2]
1 | B1 | 0.435 nM | 0.648 nM
2 | B2 | 1.94 nM | 0.538 nM
3 | B3 | 1.51 nM | 0.442 nM
4 | B4 | 0.31 nM | 0.563 nM
5 | B5 | 1.14 nM | 0.303 nM
6 | B6 | 2.82 nM | 0.849 nM
7 | B7 | 0.842 nM | 0.218 nM
8 | B8 | 0.373 nM | 0.503 nM
